From patent US20060105444

Experiments:
[1] = molecular target: human Factor IX EGF domain (wild type) (UniProt P00740)
[2] = molecular target: human Factor IX EGF domain mutant EGF.AA (UniProt P00740)
[3] = molecular target: human Factor IX EGF domain mutant EGF.AG (UniProt P00740)
[4] = molecular target: human Factor IX EGF domain mutant EGF.GA (UniProt P00740)
Sequence of human Factor IX EGF domain mutant EGF.GA (P00740 other isoform, or with tags, fused parts or gaps mutant): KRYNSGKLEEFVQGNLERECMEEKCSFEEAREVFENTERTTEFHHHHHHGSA

Sequence of human Factor IX EGF domain mutant EGF.AA (P00740 other isoform, or with tags, fused parts or gaps mutant): as above
Sequence of human Factor IX EGF domain mutant EGF.AG (P00740 other isoform, or with tags, fused parts or gaps mutant): as above
Sequence of human Factor IX EGF domain (wild type) (P00740 other isoform, or with tags, fused parts or gaps): as the sequence (P00740 other isoform, or with tags, fused parts or gaps mutant) above

O-fucosyltransferase purified from CHO cells
Fucose (cpm) [1]: 12100 cpm | Fucose (cpm) [2]: 1820 cpm | RP-HPLC with electrospray mass spectrometry of the fucosylation product [2]: only one of the four differently folded species served as an acceptor substrate for the O-fucosyltransferase | Fucose (cpm) [3]: 4580 cpm | Fucose (cpm) [4]: 6480 cpm
